Experimental data: the supplement of paper PMC7877785
± gives the uncertainty stated by the source.

Experiment: self-splicing fitness, log relative to wild type (ln ratio); higher = more splicing; Tetrahymena group I intron in knt gene, E. coli kanamycin selection, DiMSum; sequences stand for … in CUCUCU…GGAGGGAAAAGUUAUCAGGCAUGCACCUGGUAGCUAGUCUUUAAACCAAUAGAUUGCAUCGGUUUAAAAGGCAAGACCGUCAAAUUGCGGGAAAGGGGUCAACAGCCGUUCAGUACCAAGUCUCAGGGGAAACUUUGAGAUGGCCUUGCAAAGGGUAUGGUAAUAAGCUGACGGACAUGGUCCUAACCACGCAGCCAAGUCCUAAGUCAACAGAUCUUCUGUUGAUAUGGAUGCAGUUCACAGACUAAAUGUCGGUCGGGGAAGAUGUAUUCUUCUCAUAAGAUAUAGUCGGACCUCUCCUUAAUGGGAGCUAGCGGAUGAAGUGAUGCAACACUGGAGCCGCUGGGAACUAAUUUGUAUGCGAAAGUAUAUUGAUUAGUUUUGGAGUACUCGUGGUCG
Procedure, shortened: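 DiMSum derived fitness as the error-weighted combination of fold changes across replicates, kanamycin versus no kanamycin, normalised to wild type. E. coli BL21(DE3) held the library, which randomised all eight P1ex-region intron nucleotides within the knt kanamycin-resistance gene on pET-22b(+). Six replicate transformations grew overnight at 37°C or 30°C on LB agar with or without 25 μg/mL kanamycin, also containing 100 μg/mL carbenicillin, 50 μM IPTG and 0.2% rhamnose, and pooled colonies were amplicon-sequenced on an Illumina HiSeq 2500.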

Sequence | self-splicing fitness (ln) (30 °C) | self-splicing fitness (ln) (37 °C)
GCCAAGCAAUAUUACGCCAG | -3.37 ± 0.21 | -2.88 ± 0.24
GCCAAGCAAUAUUACGCCCU | -1.4 ± 0.13 | -0.504 ± 0.16
GCCAAGCAAUAUUACGCCUC | -1.32 ± 0.1 | -0.316 ± 0.1
GCCAAGCAAUAUUACGCGAU | -3.73 ± 0.14 | -2.64 ± 0.18
GCCAAGCAAUAUUACGCGCA | -0.985 ± 0.12 | 0.097 ± 0.11
GCCAAGCAAUAUUACGCGCU | -1.33 ± 0.063 | -0.352 ± 0.082
GCCAAGCAAUAUUACGCGGG | -3.54 ± 0.23 | -2.37 ± 0.18
GCCAAGCAAUAUUACGCUAA | -0.682 ± 0.099 | -1.37 ± 0.13
GCCAAGCAAUAUUACGCUCU | -0.234 ± 0.1 | -0.0648 ± 0.12
GCCAAGCAAUAUUACGUAAC | -1.35 ± 0.087 | -0.157 ± 0.11
GCCAAGCAAUAUUACGUUUA | -2.97 ± 0.19 | -2.28 ± 0.18
GCCAAGCAAUAUUACGUUUC | -2.86 ± 0.18 | -0.805 ± 0.12
GCCCAGCAAUAUUACGACAC | -1.64 ± 0.081 | -0.294 ± 0.11
GCCCAGCAAUAUUACGACAU | -1.515 ± 0.012 | -0.82 ± 0.032
GCCCAGCAAUAUUACGCAUU | -0.902 ± 0.05 | -0.248 ± 0.063
GCCCAGCAAUAUUACGCCAA | -3.11 ± 0.14 | -1.71 ± 0.1
GCCCAGCAAUAUUACGCCAU | -2.56 ± 0.22 | -3.35 ± 0.37
GCCCAGCAAUAUUACGCCUC | -0.831 ± 0.075 | 0.0191 ± 0.11
GCCCAGCAAUAUUACGCGCA | -1.44 ± 0.11 | -0.0956 ± 0.1
GCCCAGCAAUAUUACGCGCC | -4.19 ± 0.42 | -0.613 ± 0.19
GCCCAGCAAUAUUACGCUGU | -0.516 ± 0.063 | -0.482 ± 0.092
GCCCAGCAAUAUUACGCUUG | -3.45 ± 0.2 | -1.79 ± 0.17
GCCCAGCAAUAUUACGGAAA | -0.768 ± 0.075 | -0.234 ± 0.084
GCCCAGCAAUAUUACGGAUC | -0.448 ± 0.044 | -0.289 ± 0.056

Sequence | self-splicing fitness (ln) (30 °C) | self-splicing fitness (ln) (37 °C)
GCCCAGCAAUAUUACGGCGC | -3.02 ± 0.17 | -1.87 ± 0.16
GCCCAGCAAUAUUACGGCUA | -1.1 ± 0.095 | -0.549 ± 0.1
GCCCAGCAAUAUUACGGCUC | -0.866 ± 0.11 | -0.219 ± 0.14
GCCCAGCAAUAUUACGGGCG | -2.53 ± 0.091 | -1.7 ± 0.099
GCCCAGCAAUAUUACGGUUG | -2.99 ± 0.12 | -1.95 ± 0.11
GCCCAGCAAUAUUACGUCCG | -3.33 ± 0.26 | -2.83 ± 0.21
GCCCAGCAAUAUUACGUUAG | -3.81 ± 0.14 | -2.26 ± 0.16
GCCGAGCAAUAUUACGACAU | -2.286 ± 0.016 | -1.27 ± 0.034
GCCGAGCAAUAUUACGACGA | -1.34 ± 0.11 | -0.792 ± 0.098
GCCGAGCAAUAUUACGACGC | -2.86 ± 0.23 | -1.08 ± 0.21
GCCGAGCAAUAUUACGACGG | -3.78 ± 0.23 | -2.76 ± 0.28
GCCGAGCAAUAUUACGACUC | -3.37 ± 0.48 | 0.198 ± 0.28
GCCGAGCAAUAUUACGAGCG | 0.333 ± 0.15 | -0.618 ± 0.19
GCCGAGCAAUAUUACGAGUA | -2.36 ± 0.11 | -1.43 ± 0.086
GCCGAGCAAUAUUACGAGUU | -1.62 ± 0.12 | -0.709 ± 0.15
GCCGAGCAAUAUUACGCACA | -1.22 ± 0.2 | -1.51 ± 0.19
GCCGAGCAAUAUUACGCGAG | -3.29 ± 0.32 | -2.03 ± 0.32
GCCGAGCAAUAUUACGCUAC | -3.91 ± 0.31 | -4.08 ± 0.47
GCCGAGCAAUAUUACGCUAU | -2.6 ± 0.29 | -1.75 ± 0.15
GCCGAGCAAUAUUACGCUGU | -2.17 ± 0.14 | -1.57 ± 0.14
GCCGAGCAAUAUUACGGAAC | -1.82 ± 0.12 | -0.538 ± 0.12
GCCGAGCAAUAUUACGGAGA | -1.55 ± 0.093 | -1.15 ± 0.13
GCCGAGCAAUAUUACGGCAC | -2.24 ± 0.19 | -1.71 ± 0.23
